{"source": "patent US20250339531A1", "about": "“DUX4 POLYPEPTIDES AND NUCLEIC ACIDS FOR TREATING INFLAMMATORY AND AUTOIMMUNE CONDITIONS” (Fred Hutchinson Cancer Center, priority 2021, published 2025)", "test_in_all_cases": "anti-FLAG co-IP LC-MS, exp 3, +Dox", "key": {"[1]": {"target": "Neuroblast differentiation-associated protein AHNAK (Homo sapiens) (UniProt Q09666)"}, "[2]": {"target": "Ribosome-binding protein 1 (Homo sapiens) (UniProt Q9P2E9)"}, "Caprin-1 (Homo sapiens)": {"target": "Caprin-1 (Homo sapiens) (UniProt Q14444)"}, "Myosin-9 (Homo sapiens)": {"target": "Myosin-9 (Homo sapiens) (UniProt P35579)", "sequence (P35579 2-1960 limits assumed)": "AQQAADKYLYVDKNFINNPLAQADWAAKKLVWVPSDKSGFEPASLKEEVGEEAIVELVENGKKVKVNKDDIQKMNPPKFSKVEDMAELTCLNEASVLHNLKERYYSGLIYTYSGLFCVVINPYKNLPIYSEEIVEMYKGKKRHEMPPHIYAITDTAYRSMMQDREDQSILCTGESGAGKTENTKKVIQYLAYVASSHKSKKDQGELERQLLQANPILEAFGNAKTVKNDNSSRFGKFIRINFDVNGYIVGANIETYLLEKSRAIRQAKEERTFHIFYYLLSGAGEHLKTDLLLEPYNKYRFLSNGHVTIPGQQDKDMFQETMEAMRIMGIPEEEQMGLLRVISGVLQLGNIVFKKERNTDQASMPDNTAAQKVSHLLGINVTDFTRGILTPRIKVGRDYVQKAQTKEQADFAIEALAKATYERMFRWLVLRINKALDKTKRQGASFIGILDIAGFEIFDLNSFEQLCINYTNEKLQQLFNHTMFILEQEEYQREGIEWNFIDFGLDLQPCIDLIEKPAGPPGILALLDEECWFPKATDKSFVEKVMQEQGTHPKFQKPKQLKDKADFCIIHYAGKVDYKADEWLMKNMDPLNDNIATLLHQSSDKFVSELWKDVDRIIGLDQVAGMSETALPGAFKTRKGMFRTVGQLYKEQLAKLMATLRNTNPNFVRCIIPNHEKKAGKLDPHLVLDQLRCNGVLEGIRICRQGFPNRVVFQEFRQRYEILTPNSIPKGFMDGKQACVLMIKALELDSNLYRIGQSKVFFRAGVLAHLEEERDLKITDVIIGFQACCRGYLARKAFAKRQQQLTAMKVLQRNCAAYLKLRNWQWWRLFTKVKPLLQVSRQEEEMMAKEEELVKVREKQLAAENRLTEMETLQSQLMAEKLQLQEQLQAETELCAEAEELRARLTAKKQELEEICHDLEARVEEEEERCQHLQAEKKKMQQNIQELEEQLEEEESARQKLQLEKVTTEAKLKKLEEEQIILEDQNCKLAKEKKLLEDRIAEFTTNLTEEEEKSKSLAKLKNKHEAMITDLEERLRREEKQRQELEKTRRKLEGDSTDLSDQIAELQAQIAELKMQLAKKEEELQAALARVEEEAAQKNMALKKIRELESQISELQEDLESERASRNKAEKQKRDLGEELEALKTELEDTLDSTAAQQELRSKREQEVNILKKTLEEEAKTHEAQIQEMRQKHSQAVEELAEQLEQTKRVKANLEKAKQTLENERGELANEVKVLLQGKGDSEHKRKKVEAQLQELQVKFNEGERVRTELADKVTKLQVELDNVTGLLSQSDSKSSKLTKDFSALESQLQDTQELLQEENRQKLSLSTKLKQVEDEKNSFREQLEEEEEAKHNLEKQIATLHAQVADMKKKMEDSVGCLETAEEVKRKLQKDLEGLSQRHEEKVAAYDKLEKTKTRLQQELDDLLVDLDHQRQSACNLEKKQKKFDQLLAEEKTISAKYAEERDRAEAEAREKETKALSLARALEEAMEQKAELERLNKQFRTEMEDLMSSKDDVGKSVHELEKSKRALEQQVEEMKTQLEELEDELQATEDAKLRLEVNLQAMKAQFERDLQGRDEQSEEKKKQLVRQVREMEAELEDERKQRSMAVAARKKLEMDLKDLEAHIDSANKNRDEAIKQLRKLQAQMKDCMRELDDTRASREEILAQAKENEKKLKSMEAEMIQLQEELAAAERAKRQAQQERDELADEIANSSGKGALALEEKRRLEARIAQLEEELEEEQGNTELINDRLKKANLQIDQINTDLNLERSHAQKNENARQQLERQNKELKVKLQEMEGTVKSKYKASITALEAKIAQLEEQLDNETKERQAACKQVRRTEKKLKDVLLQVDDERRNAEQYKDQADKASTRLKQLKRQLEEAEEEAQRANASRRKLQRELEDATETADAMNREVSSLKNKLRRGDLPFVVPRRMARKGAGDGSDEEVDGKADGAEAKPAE"}, "Vimentin (Homo sapiens)": {"target": "Vimentin (Homo sapiens) (UniProt P08670)"}, "[3]": {"target": "60S ribosomal protein L4 (Homo sapiens) (UniProt P36578)"}, "[4]": {"target": "Tubulin beta chain (Homo sapiens) (UniProt P07437)"}, "[5]": {"target": "Neutral cholesterol ester hydrolase 1 (Homo sapiens) (UniProt Q6PIU2)"}, "[6]": {"target": "40S ribosomal protein S14 (Homo sapiens) (UniProt P62263)"}, "[7]": {"target": "Alpha-actinin-4 (Homo sapiens) (UniProt O43707)"}, "[8]": {"target": "Actin-related protein 3 (Homo sapiens) (UniProt P61158)"}, "Plectin (Homo sapiens)": {"target": "Plectin (Homo sapiens) (UniProt Q15149)"}, "[9]": {"target": "Nucleophosmin (Homo sapiens) (UniProt P06748)"}, "[10]": {"target": "Endoplasmic reticulum chaperone BiP (Homo sapiens) (UniProt P11021)"}, "[11]": {"target": "60S ribosomal protein L8 (Homo sapiens) (UniProt P62917)"}, "[12]": {"target": "Fibronectin (Homo sapiens) (UniProt P02751)"}, "[13]": {"target": "Tubulin beta-2A chain (Homo sapiens) (UniProt Q13885)", "sequence (Q13885 whole entry)": "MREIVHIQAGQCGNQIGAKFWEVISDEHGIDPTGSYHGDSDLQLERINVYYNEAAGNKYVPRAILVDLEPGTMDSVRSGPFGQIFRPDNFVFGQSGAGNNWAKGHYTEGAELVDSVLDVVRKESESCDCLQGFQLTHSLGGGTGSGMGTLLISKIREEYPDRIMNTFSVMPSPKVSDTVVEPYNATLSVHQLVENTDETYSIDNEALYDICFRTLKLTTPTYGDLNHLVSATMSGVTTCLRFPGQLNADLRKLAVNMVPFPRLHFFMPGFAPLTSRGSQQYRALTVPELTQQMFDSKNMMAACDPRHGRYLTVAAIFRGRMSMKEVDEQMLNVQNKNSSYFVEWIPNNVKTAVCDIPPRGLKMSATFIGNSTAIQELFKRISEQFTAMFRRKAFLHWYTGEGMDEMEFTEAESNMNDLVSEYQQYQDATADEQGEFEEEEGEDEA"}, "[14]": {"target": "Prolyl 4-hydroxylase subunit alpha-1 (Homo sapiens) (UniProt P13674)"}, "[15]": {"target": "40S ribosomal protein S3a (Homo sapiens) (UniProt P61247)"}, "[16]": {"target": "Tubulin beta-4B chain (Homo sapiens) (UniProt P68371)", "sequence (P68371 whole entry)": "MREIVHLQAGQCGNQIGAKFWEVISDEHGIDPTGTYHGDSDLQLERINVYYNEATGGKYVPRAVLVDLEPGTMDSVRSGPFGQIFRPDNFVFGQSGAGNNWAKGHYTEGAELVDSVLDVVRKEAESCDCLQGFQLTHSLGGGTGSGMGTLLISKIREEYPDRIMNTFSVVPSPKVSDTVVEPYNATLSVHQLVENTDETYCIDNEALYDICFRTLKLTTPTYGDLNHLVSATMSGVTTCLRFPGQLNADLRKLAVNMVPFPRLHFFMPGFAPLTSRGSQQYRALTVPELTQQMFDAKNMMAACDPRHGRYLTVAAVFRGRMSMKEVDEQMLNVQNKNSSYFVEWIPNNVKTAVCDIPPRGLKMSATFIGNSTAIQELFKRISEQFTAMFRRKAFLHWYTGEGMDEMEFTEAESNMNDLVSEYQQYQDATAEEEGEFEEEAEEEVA"}, "[17]": {"target": "AP-2 complex subunit alpha-1 (Homo sapiens) (UniProt O95782)"}, "[18]": {"target": "60S ribosomal protein L13 (Homo sapiens) (UniProt P26373)"}, "[19]": {"target": "Ribonuclease inhibitor (Homo sapiens) (UniProt P13489)"}, "[20]": {"target": "40S ribosomal protein S8 (Homo sapiens) (UniProt P62241)"}, "[21]": {"target": "Heterogeneous nuclear ribonucleoprotein K (Homo sapiens) (UniProt P61978)"}, "[22]": {"target": "Plasminogen activator inhibitor 1 RNA-binding protein (Homo sapiens) (UniProt Q8NC51)"}, "[23]": {"target": "Probable ATP-dependent RNA helicase DDX6 (Homo sapiens) (UniProt P26196)"}, "[24]": {"target": "60S ribosomal protein L3 (Homo sapiens) (UniProt P39023)"}, "[25]": {"target": "KN motif and ankyrin repeat domain-containing protein 2 (Homo sapiens) (UniProt Q63ZY3)"}, "[26]": {"target": "Serine/threonine-protein phosphatase 2A 65 kDa regulatory subunit A alpha isoform (Homo sapiens) (UniProt P30153)"}, "[27]": {"target": "Tubulin alpha-1B chain (Homo sapiens) (UniProt P68363)"}, "Filamin-C (Homo sapiens)": {"target": "Filamin-C (Homo sapiens) (UniProt Q14315)"}, "Desmin (Homo sapiens)": {"target": "Desmin (Homo sapiens) (UniProt P17661)", "sequence (P17661 2-470 limits assumed)": "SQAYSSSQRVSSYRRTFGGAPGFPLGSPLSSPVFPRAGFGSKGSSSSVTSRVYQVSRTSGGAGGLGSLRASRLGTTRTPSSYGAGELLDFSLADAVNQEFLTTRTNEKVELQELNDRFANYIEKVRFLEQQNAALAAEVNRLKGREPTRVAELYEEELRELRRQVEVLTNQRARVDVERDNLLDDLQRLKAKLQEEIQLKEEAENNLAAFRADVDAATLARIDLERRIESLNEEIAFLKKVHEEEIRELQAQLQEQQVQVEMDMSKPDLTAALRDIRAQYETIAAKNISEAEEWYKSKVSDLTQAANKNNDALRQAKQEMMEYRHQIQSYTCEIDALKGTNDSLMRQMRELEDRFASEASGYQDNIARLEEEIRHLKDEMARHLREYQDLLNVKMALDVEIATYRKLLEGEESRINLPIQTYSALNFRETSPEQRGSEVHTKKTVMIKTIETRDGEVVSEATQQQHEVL"}, "[28]": {"target": "Elongation factor 1-gamma (Homo sapiens) (UniProt P26641)"}, "[29]": {"target": "Elongation factor 1-alpha 1 (Homo sapiens) (UniProt P68104)"}, "[30]": {"target": "Protein disulfide-isomerase (Homo sapiens) (UniProt P07237)", "sequence (P07237 18-508 limits assumed)": "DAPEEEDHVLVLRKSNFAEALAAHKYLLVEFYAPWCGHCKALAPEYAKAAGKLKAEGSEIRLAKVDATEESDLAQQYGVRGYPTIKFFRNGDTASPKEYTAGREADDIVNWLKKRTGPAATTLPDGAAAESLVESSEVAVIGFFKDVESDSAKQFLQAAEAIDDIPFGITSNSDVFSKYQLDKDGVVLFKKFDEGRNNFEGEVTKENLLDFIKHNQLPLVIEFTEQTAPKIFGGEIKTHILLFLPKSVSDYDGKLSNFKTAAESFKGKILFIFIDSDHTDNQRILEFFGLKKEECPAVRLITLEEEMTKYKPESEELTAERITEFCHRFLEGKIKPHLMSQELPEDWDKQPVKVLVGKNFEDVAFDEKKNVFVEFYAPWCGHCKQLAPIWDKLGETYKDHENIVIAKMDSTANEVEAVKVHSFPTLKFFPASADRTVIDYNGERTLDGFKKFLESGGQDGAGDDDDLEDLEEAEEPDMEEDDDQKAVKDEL"}, "Drebrin (Homo sapiens)": {"target": "Drebrin (Homo sapiens) (UniProt Q16643)"}, "[31]": {"target": "Cytoskeleton-associated protein 4 (Homo sapiens) (UniProt Q07065)"}, "[32]": {"target": "Heat shock protein HSP 90-beta (Homo sapiens) (UniProt P08238)", "sequence (P08238 2-724 limits assumed)": "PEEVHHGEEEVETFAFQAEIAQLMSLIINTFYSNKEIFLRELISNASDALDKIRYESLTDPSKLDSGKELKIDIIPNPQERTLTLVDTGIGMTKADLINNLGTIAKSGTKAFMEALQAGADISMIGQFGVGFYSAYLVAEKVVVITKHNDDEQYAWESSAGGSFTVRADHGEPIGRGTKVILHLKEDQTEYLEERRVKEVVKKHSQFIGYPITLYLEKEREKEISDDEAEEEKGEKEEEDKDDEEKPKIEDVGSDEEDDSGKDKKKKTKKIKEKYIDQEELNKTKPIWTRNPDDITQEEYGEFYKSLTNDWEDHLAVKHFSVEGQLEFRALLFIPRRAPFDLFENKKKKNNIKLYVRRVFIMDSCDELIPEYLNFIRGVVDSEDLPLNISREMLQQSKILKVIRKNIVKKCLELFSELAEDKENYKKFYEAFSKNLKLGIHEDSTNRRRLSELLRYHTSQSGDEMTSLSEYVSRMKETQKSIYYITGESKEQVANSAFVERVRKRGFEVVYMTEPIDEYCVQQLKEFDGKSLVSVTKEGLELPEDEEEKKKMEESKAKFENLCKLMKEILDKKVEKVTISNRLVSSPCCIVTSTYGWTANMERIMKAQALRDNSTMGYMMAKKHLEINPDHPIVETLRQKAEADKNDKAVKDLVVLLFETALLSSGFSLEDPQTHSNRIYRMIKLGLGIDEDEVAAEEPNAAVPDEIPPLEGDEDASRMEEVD"}, "[33]": {"target": "Tubulin alpha-4A chain (Homo sapiens) (UniProt P68366)", "sequence (P68366 whole entry)": "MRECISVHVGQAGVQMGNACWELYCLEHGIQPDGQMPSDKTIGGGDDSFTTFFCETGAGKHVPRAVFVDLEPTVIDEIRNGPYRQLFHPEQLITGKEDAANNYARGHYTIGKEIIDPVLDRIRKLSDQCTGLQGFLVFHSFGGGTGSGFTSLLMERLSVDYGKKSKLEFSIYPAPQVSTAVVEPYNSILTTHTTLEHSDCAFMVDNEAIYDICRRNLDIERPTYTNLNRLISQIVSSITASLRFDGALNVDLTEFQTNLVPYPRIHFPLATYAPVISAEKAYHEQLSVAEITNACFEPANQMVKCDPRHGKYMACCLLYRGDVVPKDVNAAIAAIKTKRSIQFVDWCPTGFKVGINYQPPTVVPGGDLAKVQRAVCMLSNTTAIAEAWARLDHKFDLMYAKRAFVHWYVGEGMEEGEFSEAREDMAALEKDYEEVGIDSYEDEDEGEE"}}, "data": [{"substance": "i3XFLAG-NLS-CTDaa154-424", "values": [{"measurement": "PSMs", "setting": "[1]", "value": 8, "unit": "PSMs"}, {"measurement": "PSMs", "setting": "[2]", "value": 24, "unit": "PSMs"}, {"measurement": "PSMs", "setting": "Caprin-1 (Homo sapiens)", "value": 5, "unit": "PSMs"}, {"measurement": "PSMs", "setting": "Myosin-9 (Homo sapiens)", "value": 122, "unit": "PSMs"}, {"measurement": "PSMs", "setting": "Vimentin (Homo sapiens)", "value": 42, "unit": "PSMs"}, {"measurement": "PSMs", "setting": "[3]", "value": 10, "unit": "PSMs"}, {"measurement": "PSMs", "setting": "[4]", "value": 41, "unit": "PSMs"}, {"measurement": "PSMs", "setting": "[5]", "value": 3, "unit": "PSMs"}, {"measurement": "PSMs", "setting": "[6]", "value": 2, "unit": "PSMs"}, {"measurement": "PSMs", "setting": "[7]", "value": 2, "unit": "PSMs"}, {"measurement": "PSMs", "setting": "[8]", "value": 5, "unit": "PSMs"}, {"measurement": "PSMs", "setting": "Plectin (Homo sapiens)", "value": 5, "unit": "PSMs"}, {"measurement": "PSMs", "setting": "[9]", "value": 2, "unit": "PSMs"}, {"measurement": "PSMs", "setting": "[10]", "value": 22, "unit": "PSMs"}, {"measurement": "PSMs", "setting": "[11]", "value": 3, "unit": "PSMs"}, {"measurement": "PSMs", "setting": "[12]", "value": 17, "unit": "PSMs"}, {"measurement": "PSMs", "setting": "[13]", "value": 35, "unit": "PSMs"}, {"measurement": "PSMs", "setting": "[14]", "value": 3, "unit": "PSMs"}, {"measurement": "PSMs", "setting": "[15]", "value": 3, "unit": "PSMs"}, {"measurement": "PSMs", "setting": "[16]", "value": 42, "unit": "PSMs"}, {"measurement": "PSMs", "setting": "[17]", "value": 10, "unit": "PSMs"}, {"measurement": "PSMs", "setting": "[18]", "value": 2, "unit": "PSMs"}, {"measurement": "PSMs", "setting": "[19]", "value": 3, "unit": "PSMs"}, {"measurement": "PSMs", "setting": "[20]", "value": 2, "unit": "PSMs"}, {"measurement": "PSMs", "setting": "[21]", "value": 2, "unit": "PSMs"}, {"measurement": "PSMs", "setting": "[22]", "value": 2, "unit": "PSMs"}, {"measurement": "PSMs", "setting": "[23]", "value": 2, "unit": "PSMs"}, {"measurement": "PSMs", "setting": "[24]", "value": 3, "unit": "PSMs"}, {"measurement": "PSMs", "setting": "[25]", "value": 3, "unit": "PSMs"}, {"measurement": "PSMs", "setting": "[26]", "value": 5, "unit": "PSMs"}, {"measurement": "PSMs", "setting": "[27]", "value": 22, "unit": "PSMs"}, {"measurement": "PSMs", "setting": "Filamin-C (Homo sapiens)", "value": 2, "unit": "PSMs"}, {"measurement": "PSMs", "setting": "Desmin (Homo sapiens)", "value": 9, "unit": "PSMs"}, {"measurement": "PSMs", "setting": "[28]", "value": 3, "unit": "PSMs"}, {"measurement": "PSMs", "setting": "[29]", "value": 9, "unit": "PSMs"}, {"measurement": "PSMs", "setting": "[30]", "value": 3, "unit": "PSMs"}, {"measurement": "PSMs", "setting": "Drebrin (Homo sapiens)", "value": 3, "unit": "PSMs"}, {"measurement": "PSMs", "setting": "[31]", "value": 30, "unit": "PSMs"}, {"measurement": "PSMs", "setting": "[32]", "value": 2, "unit": "PSMs"}, {"measurement": "PSMs", "setting": "[33]", "value": 14, "unit": "PSMs"}]}]}
